First the molecules themselves.
B1: Hairpin Ribozyme (parent)
chain: GUCCUCUUUCACGUGCGCGUGAAAGAGAGAAGUGAACCAGAGAAACACACGUUGUGGUAUAUUACCUGGUA

This series covers variants of B1. As to the kind of experiment: self-cleavage, relative activity (ratio to wild type); higher = more cleavage; co-transcriptional.
Consider A41G G68U, for which the self-cleavage amounted to 0.364.
For G42C U58C, the self-cleavage was found to be 0.185.
With A41C U58C the figure was 1.2.
For the variant A41C U58G, the self-cleavage came out at 1.18.
For the variant A43C G68A, the self-cleavage was found to be 0.176.
For A43C G68U the value was 0.0938; for A43G A49C, 0.116.
With A43G A49U the figure was 0.197; with A41U C46G, 0.133; with G42A U67G, 0.125.
In the case of G42A U67A, the self-cleavage is 0.219.
With A43U A71C the figure was 0.396; with A43G A64U, 0.302; with A41U A49C, 0.238.
Turning to A41U A49G, the self-cleavage stood at 1.06.
As for A41G U60G, the self-cleavage was determined as 0.367.
On to A43C C66U, for which the self-cleavage stood at 0.181.
Consider G40C U62G, for which the self-cleavage turned out to be 0.0847.
For A41C C50A the value was 0.634; for A43G U53G, 0.226.
With A43G C48G the figure was 0.139.
With A43G A47C, the self-cleavage worked out at 0.172.
With G40A A64G the figure was 0.119.
Take G40C C48A: the self-cleavage is 0.128.
Turning to G40C C48U, the self-cleavage came to 0.135.
With A41U U70G the figure was 1.1; with A41U U70A, 0.776.
For G42C U67A the value was 0.0793.
For G42C U67G the value was 0.125; for A41C U67C, 0.249; for A41G G51C, 0.677.
Consider A43C C48G, for which the self-cleavage turned out to be 0.0498.
As for G40U C66U, the self-cleavage was determined as 0.223.
For G40C G54C the value was 0.114.
G42A C66U: the self-cleavage was determined as 0.147.
For G42A G69A, the self-cleavage stood at 0.112.
With A41C A49U the figure was 0.0586; with A41C A49G, 0.561.
Regarding A41U U62A, the self-cleavage was found to be 0.143.
With A41U U62C the figure was 0.711.
For A41U U62G, the self-cleavage was 0.202.
Regarding G42U G57A, the self-cleavage came out at 0.187.
With G42U G57C the figure was 0.0657; with G42U G57U, 0.187.
As to A43C U58A, the self-cleavage is 0.174.
For G40C U67C, the self-cleavage is 0.098.
On to G42A A47G, for which the self-cleavage was 0.162.
With A43C U63A the figure was 0.126; with A41G U52G, 1.15.
For A43G A71G the value was 0.165; for A43G A71C, 0.458; for A43G A71U, 0.16.
In the case of A43C A59U, the self-cleavage is 0.101.
In the case of G42C G54C, the self-cleavage came to 0.113.
On to A43C U53A, for which the self-cleavage turned out to be 0.129.
With A43C U53C the figure was 0.163.
For A41C U53G the value was 0.758; for G40C C50G, 0.12.
For A41U G54U the value was 1.19; for G40U G69U, 0.0875.
G42A A45U: the self-cleavage is 0.109.
As for A41C U70G, the self-cleavage worked out at 0.91.
For A41C U70A, the self-cleavage came to 0.732.
For A43U A49C the value was 0.173; for A43G C46G, 0.26; for G40C A41C, 0.108.
Regarding G42C A64G, the self-cleavage is 0.232.
With A41U G69U the figure was 0.348; with A41U G69A, 0.685; with A41U G69C, 0.55.
Regarding A41C A64G, the self-cleavage was found to be 0.173.
Consider G40C U60A, for which the self-cleavage came to 0.0252.
With G40C U60G the figure was 0.102; with G42C G69C, 0.145; with G42C G69U, 0.157.
For G42C G69A the value was 0.0872; for G42C A44G, 0.137.
In the case of G42C A44U, the self-cleavage worked out at 0.174.
For G42C A44C the value was 0.0939; for A43C A61U, 0.0908.
With A43C A61C the figure was 0.218.
With G42C U52C, the self-cleavage was 0.427.
With A41G A59U, the self-cleavage was found to be 0.138.
For G40C C65U the value was 0.129; for G42C A45G, 0.095; for G42C A45U, 0.124.
Consider A43G G69A, for which the self-cleavage was 0.0947.
Turning to A41C G56C, the self-cleavage came out at 0.237.
Take A41G C48G: the self-cleavage was determined as 0.121.
With A41G C48U the figure was 0.162; with G40A U63G, 0.126.
For G40U U67C the value was 0.0949; for G40U U67G, 0.151.
With G40C C46U the figure was 0.116; with A41G G57A, 0.184; with A41G G57U, 0.184.
On to G42C U60C, for which the self-cleavage was found to be 0.419.
Turning to A41C C48U, the self-cleavage was 0.183.
With G42A U52A the figure was 0.221.
For G40C A61C the value was 0.107.
In the case of G42C G51U, the self-cleavage stood at 0.448.
For A41C G54A the value was 0.829; for G42U G51A, 0.191.
Take G42U G51U: the self-cleavage was 0.345.
With G40A G68U the figure was 0.156; with G40A G68A, 0.211.
With G40A G68C the figure was 0.223; with A43C U52G, 0.164; with A43C U52C, 0.109.
In the case of G40U A64U, the self-cleavage worked out at 0.1.
As for G40U A64C, the self-cleavage was determined as 0.175.
For G40A A61U the value was 0.177; for G42U A71G, 0.393.
Consider G42U A71U, for which the self-cleavage worked out at 0.217.
For A41G A43C the value was 0.285.
With A41G A43U, the self-cleavage was 0.152.
In the case of A41U U60A, the self-cleavage was found to be 1.37.
With G40A U58A the figure was 0.134.
As for G40A U58G, the self-cleavage was 0.19.
For A43C C46U the value was 0.194.
Consider G42U A45U, for which the self-cleavage was determined as 0.112.
In the case of G42U A45C, the self-cleavage stood at 0.227.
In the case of G42U A45G, the self-cleavage was determined as 0.131.
With A41C A43G the figure was 0.191; with G40C G69C, 0.169; with G40A U70C, 0.136.
For G40U U60A the value was 0.191; for G42A U60A, 0.0887; for G42C G57U, 0.146.
For G40A G42U the value was 0.127.
G42A A64U: the self-cleavage was 0.107.
For the variant A43C G54C, the self-cleavage amounted to 0.163.
For A43C G54A, the self-cleavage is 0.217.
For the variant A43G G56C, the self-cleavage is 0.0421.
For A43G G56U the value was 0.0228; for G42C C46U, 0.12.
Turning to G42U A49G, the self-cleavage was determined as 0.134.
Turning to G42A U63G, the self-cleavage was 0.193.
With A43G U52G the figure was 0.
For A43G U52A the value was 0.202; for G40C U63G, 0.135.
For G40C U63A the value was 0.183; for A43C A44G, 0.0582.
Regarding G42U C65G, the self-cleavage came out at 0.209.
Turning to G42U G68C, the self-cleavage was 0.152.
With G42U G68A the figure was 0.129; with G42C A47U, 0.147.
In the case of G42C C50A, the self-cleavage was found to be 0.212.
For A41U A44C the value was 0.115.
Turning to A41U A44G, the self-cleavage was 0.153.
With A41G G54C the figure was 0.672; with A41G G54A, 0.481; with G42U U63G, 0.168.
Consider G40C A44C, for which the self-cleavage was 0.0317.
For G40A U52A the value was 0.352.
With G40A U52C the figure was 0.347; with A41G U53G, 1.05; with A43C A71C, 0.26.
With A43C A71U the figure was 0.159; with A43G A44U, 0.207.
Regarding A43C A49U, the self-cleavage was found to be 0.142.
With A41G the figure was 0.913; with A41C, 1.21.
With A41U, the self-cleavage turned out to be 1.29.
For the variant G40U U62A, the self-cleavage amounted to 0.141.
Consider G40U U62C, for which the self-cleavage was found to be 0.212.
With A43C U62C the figure was 0.129.

Values taken from the RNAGym collection of RNA variant scans (doi:10.7554/elife.80360).
